This data set can be described thus: protein stability index of a GFP-peptide fusion (GPS, HEK-293T) (PSI 1-6); higher = more stable.
The mark [1] stands for this setting: treatment: DMSO, c terminus: a fixed tail appended.
Setting [2] is: treatment: MLN4924 1 uM, 8 h, c terminus: a fixed tail appended.

This passage reports protein stability index results from the supplement of paper PMC10567573.

± gives the standard deviation.
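Note: 24-mer peptide tiles fused after GFP, lentivirally expressed, FACS-sorted into six equal bins by GFP/DsRed ratio, decoded by Illumina sequencing, PSI is the read-weighted mean bin number.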

For the sequence RDRVGHKSIPMRNLRARPAKCLS [SERPINB5], the protein stability index by setting is: (treatment: DMSO, c terminus: native) 2.34 ± 0.23; (treatment: MLN4924 1 uM, 8 h, c terminus: native) 2.48 ± 0.24.
Consider RDVAAWGRARATGGDLEEQQHAEG [DNAAF3], for which the protein stability index under setting [1] was determined as 5.43 ± 0.24 and the protein stability index under setting [2] amounted to 5.3 ± 0.086.
For the sequence REDSKEAEKSGEATDGARPQALPE [CHGA], the protein stability index reads like this: under setting [1], 5.64 ± 0.066; under setting [2], 5.64 ± 0.17.
On to REFSFTLKDDIYIRYQSFNNQSDL [PRIM1], for which the protein stability index runs as follows: under setting [1], 2.26 ± 0.084; under setting [2], 2.22 ± 0.41.
Taken in the same sequence, the figures for REHVCRKDQRNPPSLGRVLPDPRE [RBMY1A1] were 4.69 ± 0.22 and 4.8 ± 0.24.
REISETEAKALLKERQKKDNHNLI [TFE3]: the protein stability index under setting [1] was found to be 5 ± 0.23 and the protein stability index under setting [2] amounted to 5.1 ± 0.16.
Taken in the same sequence, the figures for RELGIRQRDEQLRALQERLGQQQR [FBF1] were 4.39 ± 0.14 and 4.42 ± 0.14.
Taken in the same sequence, the figures for RELTGLKALYETELADARRALDDT [LMNB1] were 4.76 ± 0.31 and 4.77 ± 0.094.
The matching figures for RFELINIDDLEDDPVVNGERSGCA [TCF25]: 4.69 ± 0.26 and 4.68 ± 0.26.
As for RFRSCNTEDCPTGSALTFREEQCA [ADAMTS4], the protein stability index under setting [1] turned out to be 3.75 ± 0.3 and the protein stability index under setting [2] amounted to 4.24 ± 0.27.
Taken in the same sequence, the figures for RFYLPLLIHQHEKVIYLDDDVIVQ [GLT8D2] were 2.32 ± 0.56 and 1.97 ± 0.25.
The matching figures for RGMDLSWESRTGDQYSYSSLVMGS [LCOR]: 2.65 ± 0.41 and 2.92 ± 0.28.
Taken in the same sequence, the figures for RGPRMCRFIRERDRAVNDYPSLYY [CDC25B] were 2.17 ± 0.27 and 2.12 ± 0.39.
Regarding RHLERKAWVANFERPRMNANSLLA [CRY1], the protein stability index runs as follows: under setting [1], 2.49 ± 0.27; under setting [2], 3.1 ± 0.15.
In turn, RHNALLSKRLLALTSSDLGCQPSR [TMEM192] yielded a protein stability index under setting [1] of 2.97 ± 0.13 and a protein stability index under setting [2] of 3.14 ± 0.38.
Turning to RHSFRKHLYLLRGLPGSGKTTLAR [N4BP2L1], the protein stability index under setting [1] stood at 2.5 ± 0.17 and the protein stability index under setting [2] stood at 2.54 ± 0.37.
For RKADFKAGKALVISGREVFEFRPE [ZC3H15], the protein stability index stood at 3.11 ± 0.25 under setting [1] and 3.38 ± 0.41 under setting [2].
Taken in the same sequence, the figures for RKIQFNFPYFRSDRDKRDFVSAGA [CLCN6] were 2.67 ± 0.16 and 2.76 ± 0.39.
Regarding RLGWQQQAELQELEERLQLQFEAE [MTUS2], the protein stability index came to 4.55 ± 0.24 under setting [1] and 4.65 ± 0.11 under setting [2].
For RLLSYRGERVAARGYWGDIATGPF [DNAAF3], the protein stability index turned out to be 2.18 ± 0.046 under setting [1] and 2.18 ± 0.34 under setting [2].
The matching figures for RLVGKTPIETLIRDMLLSGSSFNW [NR2F2]: 3.25 ± 0.84 and 1.87 ± 0.54.
The matching figures for RMTSSPSSIPRRDDFFRHESGEHF [RAD54B]: 3.67 ± 0.25 and 3.68 ± 0.14.
Taken in the same sequence, the figures for RNIHRHVILSEIKEAVAALPPDVT [TCF25] were 3.35 ± 0.084 and 3.62 ± 0.28.
Regarding RPENRSFYLALYKQMSFLEKRGCP [TCF25], the protein stability index was found to be 2.12 ± 0.3 under setting [1] and 2.19 ± 0.34 under setting [2].
The matching figures for RQGIQLNKTPGAPESSALQPPPQS [WAS]: 4.74 ± 0.6 and 4.8 ± 0.094.
The matching figures for RQSGDRRQLPPPPTPANEERRGGL [WAS]: 5.42 ± 0.16 and 5.23 ± 0.068.
With RRAGEGRRSPRPDHPGTPPHKTFR [WEE1], the protein stability index is 4.78 ± 0.41 under setting [1] and 4.83 ± 0.32 under setting [2].
Taken in the same sequence, the figures for RRHCPLPQATFWGLVTPRSWSCHT [SOAT2] were 2.46 ± 0.4 and 2.25 ± 0.17.
Taken in the same sequence, the figures for RRLKYFFMSPCDKFRAKGRKPCKL [MCOLN1] were 2.38 ± 0.38 and 2.71 ± 0.16.
On to RRMCFVDPVRQCAECALVSLKEAE [ZFYVE21], for which the protein stability index was 2.98 ± 0.25 under setting [1] and 3.01 ± 0.64 under setting [2].
Taken in the same sequence, the figures for RRPHELLPVGGRLPGPTRPVLGRR [HAGHL] were 4.67 ± 0.16 and 4.92 ± 0.4.
The matching figures for RSHFLWKEPATMSWLEENVHEVLQ [TCF25]: 2.43 ± 0.78 and 2.69 ± 0.39.
The matching figures for RSKYDYLMILRRVVNESTVCLMGH [TENT5C]: 3.05 ± 0.86 and 2.52 ± 0.55.
Regarding RSLNEEHSKQYRCLSFQPECSMKL [VDR], the protein stability index by setting is: under setting [1], 3.25 ± 0.26; under setting [2], 3.41 ± 0.31.
Taken in the same sequence, the figures for RSMVFKDVLLLGNDYIVPRHCPEL [HNF4A] were 2.29 ± 0.14 and 2.23 ± 0.32.
The matching figures for RSPLVSGDESSLLLNAASTVARPV [RHOBTB3]: 4.31 ± 0.17 and 4.25 ± 0.26.
Regarding RSVDVVVSSVFLLTLSIAFICCAQ [PHTF1], the protein stability index under setting [1] is 3.33 ± 0.59 and the protein stability index under setting [2] stood at 3.35 ± 0.6.
The matching figures for RTIYHMFIALLILFILSTLVVDYI [SOAT1]: 2.84 ± 1.7 and 2.17 ± 0.28.
Taken in the same sequence, the figures for RTVDGSPMMKAAMYSVEITVEKDK [PALM] were 4.09 ± 0.18 and 4.1 ± 0.23.
RVRPTFQEITSETEDLCEKPDDEV [RIPK4] yielded a protein stability index under setting [1] of 5.57 ± 0.17 and a protein stability index under setting [2] of 5.49 ± 0.56.
Taken in the same sequence, the figures for RWREGTKDSHDPLPSWAELLRPKY [PBXIP1] were 2.5 ± 0.21 and 2.96 ± 0.3.
Consider RWSSDLNKHLTTHQGIKPYKCSWC [ZNF75A], for which the protein stability index reads like this: under setting [1], 2.55 ± 0.45; under setting [2], 2.73 ± 0.49.
In the case of RYVYRFVCDLQSLLGYTPEELHAM [ETS1], the protein stability index was found to be 2.69 ± 0.65 under setting [1] and 2.5 ± 0.5 under setting [2].
With SAQYSQQLQAARNEYLLNLVATNA [FCHSD1], the protein stability index reads like this: under setting [1], 2.71 ± 0.11; under setting [2], 2.77 ± 0.18.
SDGRTFLSRCEFQRAKCKDPQLEI [SMOC2]: the protein stability index runs as follows: under setting [1], 2.95 ± 0.42; under setting [2], 2.93 ± 0.33.
As for SDPARYEFLWGPRAHAEIRKMSLL [MAGEA10], the protein stability index is, setting by setting: under setting [1], 2.46 ± 0.3; under setting [2], 2.49 ± 0.53.
Turning to SDPQLIVQLRFCGRQPCGRFLRAY [TRADD], the protein stability index runs as follows: under setting [1], 2.35 ± 0.69; under setting [2], 2.11 ± 0.27.
In the case of SDYFCAMFTSELSEKGKPYVDIQG [KLHL12], the protein stability index came to 2.53 ± 0.14 under setting [1] and 2.91 ± 0.27 under setting [2].
The matching figures for SDYISEFRFAPNHTKELEDKVIEL [EPB41L3]: 2.83 ± 0.5 and 3.44 ± 0.49.
Taken in the same sequence, the figures for SEGLHLAGTAGHPPSGSQPLTSTQ [FBF1] were 5.07 ± 0.17 and 4.96 ± 0.23.
On to SEIIQITTGSKELDKLLQGGIETG [RAD51], for which the protein stability index reads like this: under setting [1], 4.11 ± 0.34; under setting [2], 4.3 ± 0.26.
SELPFVPNYLANPAFPFIYTPTAE [ANKRD40]: the protein stability index by setting is: under setting [1], 2.8 ± 0.19; under setting [2], 2.95 ± 0.2.
Turning to SENVVNRMKEPSSPPPAPTSSTFG [CHCHD6], the protein stability index under setting [1] turned out to be 5.04 ± 0.2 and the protein stability index under setting [2] turned out to be 5.3 ± 0.13.
The matching figures for SEQEHFLIVPFGLLYSEVTASSLV [ADD1]: 2.65 ± 0.57 and 2.92 ± 0.68.
For SETPKSQVGTLLFRSRSRLTHLSL [CDC25B], the protein stability index reads like this: under setting [1], 2.43 ± 0.12; under setting [2], 2.53 ± 0.3.
The matching figures for SEVESAVWYVKKFGRYLEHLEVKF [FBXO39]: 2.44 ± 0.22 and 2.47 ± 0.43.
With SFMMGQGGEAAHHTRSPYSTFYPP [NEUROD6], the protein stability index turned out to be 2.66 ± 0.39 under setting [1] and 2.84 ± 0.25 under setting [2].
Taken in the same sequence, the figures for SFMTWLRSYIKLFQAPCQRCGKFL [MED27] were 2.6 ± 0.31 and 2.48 ± 0.18.
The matching figures for SFSTAIGRTCITDLQLTVGGAQAS [MFSD9]: 2.5 ± 0.33 and 2.34 ± 0.3.
Taken in the same sequence, the figures for SFTQGEGARPLSTRVPRAAIVFTD [MATN2] were 3.5 ± 0.38 and 3.55 ± 0.12.
For the sequence SGADTAKCGIHSMFPLHLAALNAH [ANKRD44], the protein stability index was determined as 2.07 ± 0.29 under setting [1] and 2.36 ± 0.11 under setting [2].
The matching figures for SGCLRISIQKLSNESRYMIYEFWE [NECAB1]: 2.21 ± 0.95 and 2.64 ± 0.82.
The matching figures for SGDDKNSNYFSMDSMEGKRSPYAG [TRIM29]: 4.5 ± 0.25 and 4.61 ± 0.24.
The matching figures for SGEFGSVFKCVKRLDGCIYAIKRS [WEE1]: 2.31 ± 0.58 and 2.65 ± 0.12.
Consider SGLRGGILIELAMRGRIYLEPPTM [GOLPH3L], for which the protein stability index runs as follows: under setting [1], 3.09 ± 0.41; under setting [2], 2.74 ± 0.76.
Taken in the same sequence, the figures for SGNMLGRHFFTSWASCLQYDFDTQ [WDFY1] were 2.47 ± 0.53 and 2.11 ± 0.12.
Turning to SGSESPSDSGKDLPEPSKRGPPHG [MYCL], the protein stability index under setting [1] was found to be 5.4 ± 0.24 and the protein stability index under setting [2] amounted to 5.32 ± 0.12.
With SGTQYVSTRQTQSWTAVTPQQTWA [C18orf25], the protein stability index came to 2.7 ± 0.29 under setting [1] and 3 ± 0.51 under setting [2].
In the case of SGVDECARQEGLTFFGTELAPVRQ [PBXIP1], the protein stability index by setting is: under setting [1], 4.13 ± 0.4; under setting [2], 4.08 ± 0.35.
As for SHGYDMSTFIRRYSRYLNEKAFSY [SNAP91], the protein stability index was 2.17 ± 0.24 under setting [1] and 2.3 ± 0.52 under setting [2].
On to SHLLVAEPEKIYAMPDPTVPDSDI [ESRRG], for which the protein stability index is, setting by setting: under setting [1], 5.04 ± 0.081; under setting [2], 5.08 ± 0.13.
Consider SHLQTNYSKTFQRSNVDFLETPEL [NECAB1], for which the protein stability index by setting is: under setting [1], 3.47 ± 0.23; under setting [2], 3.62 ± 0.57.
